Reference: paper PMC7481934 (Nature, 2020)

B2: GST-Lge1-StrepII (natural protein, S. cerevisiae, UniProt Q02796 1-332, looked up)
chain: MSGYTGNNYSRYSSTPPRQRGGYHHARRSRGGAGGSYYRGGNASYGARYNSDYEQPPQEGDLRQTGAYYRNGYTDTRPYYSANSRHYQAQPSPRYNNGTNSYHLPQRGNSQDTNGRTTSASQEDNDEKRVKSRYRNMQADHPRQQPMSVGSTSSRNGSSGNSSTSSTSNGLPPPPSVSSITNNRSYHSSAYPYSSSHTYNNYHHRETPPPPPSNGYYAKGYPVHVPENRSNSDGSSSSVVKKKRILDMKDSPFIYLTDFDKNVKKTNNTESECEKAREVFKESDSIDSALEELNLKINSNELELRLLNNQCDKHALNIQLTQEKLDSLLLMQ

Legend:
co-sedimentation = target: the molecule itself; test: co-sedimentation
StrepII-Bre1 = target: T1, StrepII-Bre1 (S. cerevisiae, UniProt Q07457 1-700); test: pull-down
T1 sequence (looked up): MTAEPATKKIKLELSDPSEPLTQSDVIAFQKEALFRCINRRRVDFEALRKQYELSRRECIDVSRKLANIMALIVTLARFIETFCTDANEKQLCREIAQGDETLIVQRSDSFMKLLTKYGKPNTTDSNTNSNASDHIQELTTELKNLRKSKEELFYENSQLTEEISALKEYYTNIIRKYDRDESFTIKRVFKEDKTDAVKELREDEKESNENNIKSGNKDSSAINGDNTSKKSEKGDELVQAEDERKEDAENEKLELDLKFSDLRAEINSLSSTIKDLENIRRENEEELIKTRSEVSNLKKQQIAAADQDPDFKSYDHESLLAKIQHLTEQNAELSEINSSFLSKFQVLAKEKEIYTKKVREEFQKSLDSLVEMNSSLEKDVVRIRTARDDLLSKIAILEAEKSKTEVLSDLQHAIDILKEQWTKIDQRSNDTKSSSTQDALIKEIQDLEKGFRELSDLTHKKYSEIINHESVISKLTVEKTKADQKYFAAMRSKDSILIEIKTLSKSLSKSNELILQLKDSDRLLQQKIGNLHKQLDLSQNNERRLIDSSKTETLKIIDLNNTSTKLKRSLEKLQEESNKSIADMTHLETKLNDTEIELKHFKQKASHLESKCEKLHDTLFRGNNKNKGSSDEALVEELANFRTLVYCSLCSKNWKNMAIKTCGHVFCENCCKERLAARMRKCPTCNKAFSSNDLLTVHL

StrepII-mGFP-Bre1 = target: T2, StrepII-mGFP-Bre1 (S. cerevisiae, UniProt Q07457 1-700); test: recruitment to reconstituted condensates
T2 sequence (looked up): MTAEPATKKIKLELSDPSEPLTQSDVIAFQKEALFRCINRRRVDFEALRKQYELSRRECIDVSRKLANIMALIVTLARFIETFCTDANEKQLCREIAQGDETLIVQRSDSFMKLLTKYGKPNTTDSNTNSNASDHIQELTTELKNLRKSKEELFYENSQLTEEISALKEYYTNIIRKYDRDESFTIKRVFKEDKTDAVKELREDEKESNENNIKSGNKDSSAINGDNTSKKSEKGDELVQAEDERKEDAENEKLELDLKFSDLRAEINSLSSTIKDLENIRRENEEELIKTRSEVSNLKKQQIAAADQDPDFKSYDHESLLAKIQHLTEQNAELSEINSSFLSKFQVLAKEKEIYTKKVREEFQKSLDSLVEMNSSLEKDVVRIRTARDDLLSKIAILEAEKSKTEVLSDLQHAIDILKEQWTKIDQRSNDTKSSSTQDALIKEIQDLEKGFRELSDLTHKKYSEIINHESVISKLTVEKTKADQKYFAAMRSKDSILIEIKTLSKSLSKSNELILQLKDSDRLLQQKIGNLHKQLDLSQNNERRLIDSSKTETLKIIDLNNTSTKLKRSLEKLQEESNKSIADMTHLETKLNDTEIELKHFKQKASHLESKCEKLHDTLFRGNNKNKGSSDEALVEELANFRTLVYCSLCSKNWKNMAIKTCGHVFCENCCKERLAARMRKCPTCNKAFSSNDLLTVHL

GST-Lge1-StrepII = target: B2; test: pull-down
6His-Lge1-StrepII = target: T3, 6His-Lge1-StrepII (S. cerevisiae, UniProt Q02796 1-332); test: recruitment to reconstituted condensates
T3 sequence (looked up): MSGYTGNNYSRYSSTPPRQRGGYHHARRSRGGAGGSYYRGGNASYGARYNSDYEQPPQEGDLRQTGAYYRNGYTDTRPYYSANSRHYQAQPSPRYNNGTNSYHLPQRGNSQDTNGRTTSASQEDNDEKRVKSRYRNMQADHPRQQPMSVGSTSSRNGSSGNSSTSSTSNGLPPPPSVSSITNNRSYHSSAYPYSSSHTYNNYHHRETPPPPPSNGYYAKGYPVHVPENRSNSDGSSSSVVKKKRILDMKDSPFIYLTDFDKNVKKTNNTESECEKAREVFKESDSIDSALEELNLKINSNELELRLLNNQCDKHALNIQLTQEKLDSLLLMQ

B1: GST-Lge1 IDR-StrepII (domain or fragment, S. cerevisiae, UniProt Q02796 1-242, looked up)
chain: MSGYTGNNYSRYSSTPPRQRGGYHHARRSRGGAGGSYYRGGNASYGARYNSDYEQPPQEGDLRQTGAYYRNGYTDTRPYYSANSRHYQAQPSPRYNNGTNSYHLPQRGNSQDTNGRTTSASQEDNDEKRVKSRYRNMQADHPRQQPMSVGSTSSRNGSSGNSSTSSTSNGLPPPPSVSSITNNRSYHSSAYPYSSSHTYNNYHHRETPPPPPSNGYYAKGYPVHVPENRSNSDGSSSSVVKK
B1: binds (co-sedimentation).

B2: binds (StrepII-Bre1).

B3: Pacific Blue-labelled 6His-TEV-Rad6 (enzyme, S. cerevisiae, UniProt P06104 1-172, looked up)
chain: MSTPARRRLMRDFKRMKEDAPPGVSASPLPDNVMVWNAMIIGPADTPYEDGTFRLLLEFDEEYPNKPPHVKFLSEMFHPNVYANGEICLDILQNRWTPTYDVASILTSIQSLFNDPNPASPANVEAATLFKDHKSQYVKRVKETVEKSWEDDMDDMDDDDDDDDDDDDDEAD
modifications: Pacific Blue C5-Maleimide label
B3: binds (StrepII-mGFP-Bre1).

B4: StrepII-Bre1 Lge1 Binding Domain (residues 308-632) (domain or fragment, S. cerevisiae, UniProt Q07457 308-632, looked up)
chain: QDPDFKSYDHESLLAKIQHLTEQNAELSEINSSFLSKFQVLAKEKEIYTKKVREEFQKSLDSLVEMNSSLEKDVVRIRTARDDLLSKIAILEAEKSKTEVLSDLQHAIDILKEQWTKIDQRSNDTKSSSTQDALIKEIQDLEKGFRELSDLTHKKYSEIINHESVISKLTVEKTKADQKYFAAMRSKDSILIEIKTLSKSLSKSNELILQLKDSDRLLQQKIGNLHKQLDLSQNNERRLIDSSKTETLKIIDLNNTSTKLKRSLEKLQEESNKSIADMTHLETKLNDTEIELKHFKQKASHLESKCEKLHDTLFRGNNKNKGSSD
B4: binds (GST-Lge1-StrepII).

B5: StrepII-mGFP-Bre1 LBD (domain or fragment, S. cerevisiae, UniProt Q07457 308-632, looked up)
chain: QDPDFKSYDHESLLAKIQHLTEQNAELSEINSSFLSKFQVLAKEKEIYTKKVREEFQKSLDSLVEMNSSLEKDVVRIRTARDDLLSKIAILEAEKSKTEVLSDLQHAIDILKEQWTKIDQRSNDTKSSSTQDALIKEIQDLEKGFRELSDLTHKKYSEIINHESVISKLTVEKTKADQKYFAAMRSKDSILIEIKTLSKSLSKSNELILQLKDSDRLLQQKIGNLHKQLDLSQNNERRLIDSSKTETLKIIDLNNTSTKLKRSLEKLQEESNKSIADMTHLETKLNDTEIELKHFKQKASHLESKCEKLHDTLFRGNNKNKGSSD
B5: binds (6His-Lge1-StrepII).

B6: GST-Lge1 CC-StrepII (domain or fragment, S. cerevisiae, UniProt Q02796 243-332, looked up)
chain: KRILDMKDSPFIYLTDFDKNVKKTNNTESECEKAREVFKESDSIDSALEELNLKINSNELELRLLNNQCDKHALNIQLTQEKLDSLLLMQ
B6: binds (StrepII-Bre1).
